What was measured:
[1] = biological target: tau K18 ΔK280 (I260C/C291A/C322A), labelled with Alexa488 or Alexa647; assay: FRET or BRET; single-molecule FRET between copies; 5 μM tau–Alexa488 + 5 μM tau–Alexa647, aggregation started with heparin (1:4 heparin/tau), 22-42 °C; aliquots diluted 12.500 times into low ionic strength buffer (no NaCl); confocal detection in a microfluidic channel, 6 min per time point
[2] = biological target: tau K18 ΔK280 (I260C/C291A/C322A), labelled with Alexa488 or Alexa647; assay: FRET or BRET; single-molecule FRET between copies; 5 μM tau–Alexa488 + 5 μM tau–Alexa647, aggregation started with heparin (1:4 heparin/tau), 22-42 °C; aliquots diluted 12.500 times into high ionic strength buffer (0.5 M NaCl); confocal detection in a microfluidic channel, 6 min per time point

maximum observed concentration of type A oligomers (37 °C) [1]: 104 nM | maximum observed concentration of type B oligomers (37 °C) [2]: 37 nM
Substance: tau K18 ΔK280 (I260C/C291A/C322A), labelled with Alexa488 or Alexa647 (domain or fragment)

From publication PMC6302314
